Here are results for 41 sequences from the nanobody polyreactivity screen of Harvey et al. (2022).

The nature of this data set: yeast display, Sf9 membrane polyspecificity reagent, FACS + sequencing; frameworks hold sequencing errors. Summed up: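 In a synthetic yeast display library (Saccharomyces cerevisiae BJ5465), nanobody expression was induced with galactose for 36–48 hours. FACS gates were set low and high (top ~1%) using anti-HA fluorescence for expression and streptavidin fluorescence for binding of the Sf9 membrane reagent. Each polyreactivity label is drawn from the gate of origin.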
As for “QVQLVESGGGLVQAGGSLRLSCAASGYIFYGYAMGWYRQAHGKERELVAAITVRGGSTYYADSVKGRFTISRDNAKNTVYLQMNSLNPEDTAVYYWAAAPQFTVGVGYWGQGTQVTVSS”, the “polyreactivity (PSR sort gate)” value is given as “low polyreactivity”.

For the sequence “QVQLIESGGGLVQAGGSLRLSCAASGRTFRRYAMGWYRQAPGKERELVAAIDASGGSTYYADSVMGRFTISRDTSKNTVYLQMTILKQEDSAVSYCNTCSGQLQLQGGRHEYWGQGTQVTVSS”, the “polyreactivity (PSR sort gate)” value is given as “high polyreactivity”. For “QVQLVESGGGLVQAGGSLRLRCAASGRTFYRYAMGWYRQAPGKERELVASINRGGSTNYADSVKGRFTISRDNAKNTVYLQMNSLKPEDTAVYYCACYCYCYWGQGTQVTVSS”, the “polyreactivity (PSR sort gate)” value is recorded as “low polyreactivity”. To “QVQLVESGGGLVQAGGSLRLSCAASGRTFVGYAMGWYRQAPGKERELVAAMSASGTSTYYADSVKGRFTISRDNAKNTVYLQMNSLKPEDTAVYYCAKAKDLPPRYGSWGQGTQVTVSS” belongs “high polyreactivity”.

For the sequence “QVQLVESGGGLVQAGGSLRLSCAASGRIFLYNAMGWYRQAPGKERELVAAITASGGTTYYADSVKGRFTISRDNAKNTVYLQMNSLKPEDNAVYYCNAYSYSGERYYWGQGTQVTVSS”, the “polyreactivity (PSR sort gate)” value is listed as “high polyreactivity”. To “QVQLVESGGGLVQAGGSLRLSCAASGTFERKVMGWYRPAPGKERELVAAISRSGSSTYYADSVKGRFTISRDNAKNTVYLQMNSLKPEDTAVYYCAARGTKQHFNYWGQGTQVTVSS” belongs “high polyreactivity”; to “QVQLVESGGGLVQAGGSLRLSCAASGFTFYYYTMGRYRQAPGKEIELLADISSGDRTYYADSVKGRFTISRDNAKNTVYLQMNSLKPEDTAVYYCAAPAKYYTRFGHYNLNQDYDSWGQGTQVTVSS”, “low polyreactivity”.

On to “QVQLVESGGGLVQAGGSLRLSCAASGFTFWVYAMGWYRQATGKEREFVASISWTGDTTYYADSVKGRFTISRDNAKNTVYLQMNSLKPEDTAVYYCAVDTILGYDYWGQGTQVTVSS”, for which the “polyreactivity (PSR sort gate)” value is recorded as “low polyreactivity”. Turning to “QVQLVESGGCLFQAGGSLRLSCAASGFNFPYYAMGWYRQAPGKERELVAAINRGGSTYYADSEKGRFTISRDNAKNTVYLQMNSLKPEDTAVFYCAAGYPSWYYGYPYDSWGQGTQVNVSS”, the “polyreactivity (PSR sort gate)” value is reported as “low polyreactivity”.

Consider “QVQLVESGGGLVQAGGSLRLSCAASGRTSREYAMGWYRQAPGKERELVAAISWNGGSTYYADSVKGRFTISRDNAMNTVYLQMNSLKPEDTAVYYCAARGKGYYRFGYWGQGTQVTVSS”, for which the “polyreactivity (PSR sort gate)” value is listed as “high polyreactivity”. On to “QVQLVESGGGLVQEGGSLRLSCAASGITFTSYTMGWYRQAPGKERELVAAISSGGSTYYADSVKGRFTISRDNAKNTVYLQMNSLKPEDTAVYYCAAISYVFRMYYWGQGTQVTVSS”, for which the “polyreactivity (PSR sort gate)” value is recorded as “high polyreactivity”.

As for “QVQLVESGGGLVQAGGSLRLSCAGSGFIFHLYAMGWYRPAPGKERELVAAIRISDGSTYYADSVKGRFTISRDNAKNTVYLLMNSLKPEDTAVYYCNRVRSSYVYVSRFDYWGQGTQVTVSS”, the “polyreactivity (PSR sort gate)” value is recorded as “high polyreactivity”. To “QVQLVESGGGLVQAGGSLRLSCAASGRTFVYYAMGWYRQAPGKERELVARISSGGSTYYADSVKGRFTISRDNAKNTVYLQMYSLKPEDTAVYYCAADAWYVWEYWWQPEDDYWGQGSQVTVSS” belongs “high polyreactivity”; to “QVQLVESGGGLVQAGGSLRLSCAASGLTFARNAMGWYRQAPGKERELVAAISSGGSTYYADSVKGRFTISRDNAKNPVYLQMNSLKPEDTAVYYCAARPIPRYYGKFWRVDYWGQGTQVTVSS”, “high polyreactivity”; to “QVQLVESGGGLVQAGGSHRISCAASGLTFFRNAMGWYRQAPGKERELVATITSTSSTNYADSVKGRFTISRDNAKNKVYLQMYSVKPEDTAVYYCNARVYYKYVGRMYYWGQGTQVTVSS”, “high polyreactivity”.

“QDQLVESGGGLVQAGGSLRLSCAASGITFKFYAMGWYRQAPGKERELVAAISWSGGSTYYADSVKGRFTISRDNAKNTVYLQMNSLKPEDTAVYYCAAYTGWIYHTRYRRDYWGQGTQVTVSS”: the “polyreactivity (PSR sort gate)” value is “high polyreactivity”. Under “QVQLVESGGGLVQAGGSLRLICAASGSIFTSNVMGWYRQSPGKERELVAAITITGTTNYADSVKGRFTISRDNAKYTVYLLMNSLKPEDTAVYDCAARHKQHNRYDYWGQGTQVTVSS” stands “low polyreactivity”. To “QLQLVESGGGLVQARGSLRLICADSGRIFTSYTMGWYRQAPGKERELVAAIDWSGGTTYYADSVKGPFTISRDNAKNTVYFQMISLKPEDTAVYYCSALYVIVGYYTYEYWGQGTQVTVSS” belongs “low polyreactivity”; to “QVQLVESGGGLFQAGGSLRLSCAASGYIFRSYAMGGYRQAPGKERELVAAITRSGGSTYYADSVKGRFTISRDNAKNTVYFQMNSLKPEDTAVYYCAVLPRGSNGMDYCGQGTQVTVSS”, “low polyreactivity”. To “QVQLVESGGGLVQAGGSLRLSCAASGITFDLYVMGWYRQAPGKERDLVAAINRGTSTYYADSVKGRFTISRDNAKITVYLQMNSLKPEDTAVYYCAADSGGVALYRYDYWGKGTQVTVSS” belongs “low polyreactivity”. “QVQLVDSGGGLVQAGGSLRLSCAASGIIFPVYAMGWYRQAPGKERELVAAITYSGDRTYYADSVKGRFTISRDNAKNTVYLQMNSLKPEDSAVYYCNARFGVWPYFYNEDDYWGQGTQVTVSS”: the “polyreactivity (PSR sort gate)” value is “low polyreactivity”. As to “QVQLVESGGGLVQAGGSLRFSCAASGRIFYPYAMGWYRQAHGKERELVAAIRRSGVDTYYADSVKGRFTISRDNAKNTVYLQMNSLKPEDTAVYYCAADPYWFFPHYDSWGQGTQVTVSS”, the “polyreactivity (PSR sort gate)” value is reported as “low polyreactivity”. Regarding “QVQLVESGGGLVQAGGSLRLSCAASGRIFDDYAMGWYRPAPGKERELVAAISSSGGSTYYADSLKGRFTISRDNAKNTVYLQINSLKPEDTAVYFCAASSFRSYYSGKYDYWGQGTQVTVSS”, the “polyreactivity (PSR sort gate)” value is “high polyreactivity”. Under “QVQLVESGGGLFQAGGSLRLSCAASGRTFLYYTMGWYRQAPGKERELVAAITSGTSTNYADSVKGRFTISRDNAKNTVYLQMNSLKPEDTAVYYCNKRAARSLNGYPLYGYYYWGQGTQVTVSS” stands “low polyreactivity”; under “QVQLVESGGGLVQAGGSLRLSCAASGITFVRYAMGWYRQAPGKERELVAVISRGGITNYADSVKGRFTISRDNAKNSVYLQMNSLKAEDTAVYYCAVRVRSNVRTYDYWGQGTQVTVSS”, “high polyreactivity”; under “QVQLVESGGGLVQAGGSLRLSCAASGSTFYRYAMGWYRQAPGKETELVAAITWRGGSTYYADSVKGRFTISRDNAKNTVYLQMNSLKPEDTAVYYCAAAKYRRGTRYYYWGQCTQVTVSS”, “high polyreactivity”. To “QVQLVESGGGLVQAGGSLRLSCAASGSTFNTYDMGWYRQAPGKERELVAAISFSDASTYYADSVKGRFTISRDNAKYTVYLQMNSLKPEDTAVYYCAADTRRITTVTTGEYGYWGQGTQVTVSS” belongs “low polyreactivity”; to “QVQLVESGGGLVQAGGSLRLSCAASGRIFSRYTMGWYRQAPGKERELVAAISSRGGSTYYADSVKVRFTISRDNAKNTVYLQMNSLKPEDTAVYYCNTPSYSGSSPYDHWGQGTQVTVSS”, “high polyreactivity”.

In the case of “QVQLVESGGGIVQAGGSHRLICAASGFTYIRYAMGWYRQAPGKERELVASISNRGGRTYYADSVKGRFTNSRDNAKNTVYLQMNSLKPEDTAVYYCAAGYSYYSWGQGTQVTVSS”, the “polyreactivity (PSR sort gate)” value is recorded as “high polyreactivity”. To “PVQLVVSGGGLVQAGGSLRLRGAASGSSFSQNAMGWSRPAPGKDRELVAAITSGGITYYADSVKGRFTISRDNAKNTVYLQMNSLKPEDTAVYDCAADYWPSGRGVAFDYWGQGTQVTVSS” belongs “low polyreactivity”; to “QVQLVESGGGLVQAGGSLRLSCAASGSIFVPYAMGWYRQAPGKERELVAAISSSTASTYYADSVKGRFTISRDNAKNTVYLQMNSLKPEDTAVYYCNAEQWDYGVRVAHYDYWGQGTQVTVSS”, “low polyreactivity”. For “QVQLVESGGGLVQAGGSLRLSCAASGSIFVGKAMGWYRQAPGKERELVAAISSSGGRTYYADSVKGRFTISRDNAKNTVYLQMNSLKPEDTAVYYCAADVSYKVKSWSVYRYEYWGQGTQVTVSS”, the “polyreactivity (PSR sort gate)” value is given as “high polyreactivity”. For the sequence “QVQLVESGGGLVQAGGSLRLSCAASGRIFYNYAMGWYRQAPGKERELLAAISWSGTSTYYADSVKGRFTISRDNAKNTVYLQMNSLKPEDTAVYYCATDRTYTARGYYLEYHRYDYRGQGTQVTVSS”, the “polyreactivity (PSR sort gate)” value is on record as “low polyreactivity”.

Turning to “QVQLVESGGGLVQAGGSLRLSCAASGSTLSSNAMGWYRQAPGKVWELVAAISYRGGSTYYADSVKGRFTISRDNAKNTVYLQMNSLKPEDTAVYYCAAYLGPYVRYYYWGQGTQVTVSS”, the “polyreactivity (PSR sort gate)” value is “high polyreactivity”. To “QVQLVESGGGLVQAGGSLRLSCAASGFILPYYAMGWYRQAPGKERELVAAISDTGRTNYADSVKGRFTISRDNAKYTVYLQMNSLKPEDTAVYYCAARYYSPRYWFRYDSWGQCTQVTVSS” belongs “high polyreactivity”. Take “QVQLEESGGGLVQAGGSLRLSCPASGIIFGSYAMGWSRQAPGKERELVAAITSDGITNYADSVKGRFTISRDNGKNTVYLPMNSLKPEDTAVYYCAAPGPLGGSDYWGQGTQVTVSS”: the “polyreactivity (PSR sort gate)” value is reported as “low polyreactivity”.

For “QVQLVESGGGLVQAGGSLRLSCAASGFIFFGEYVMGWYRQAPGKERELVAAITWSGGSTSYADSVKGRFTISRDNAKNTVYLQMNSLKPEDTAVYYCNAVSHFSTAIEFDYWGQGTQVTVSS”, the “polyreactivity (PSR sort gate)” value is listed as “low polyreactivity”. Under “QVHLVESGGGLVQAGGSLRLSCAASGFTFVSYAMGWYRQAPGKERELVDDINQSGGSTYYADSLKGRFTISRDNAKNTVYLQMNSQKPEDTAVYYCARDGDLWYYKGYGTLFDYWGQGTQVTVSS” stands “low polyreactivity”; under “QVQLVESGGGLVQAGGSLRLSCAASGYTLYPNAMGRYRQAPGKERELVAAISSGSSTYADSLKGRFTISRDNAKNTVYLQMNSLKPVDTAVYYCNADARIHYDYWGQGTQVTVSS”, “low polyreactivity”.

Turning to “QVQLVESGGGLVQAGGSLRLSCAASGRTFRINAMGWYRQAPGKERELVAAITRGDTNYADSVKGRFTISRDNAKNTVYLQMNSLKPEDTAVYYCNADLSVRYPVFRELDYWGQGTQVTVSS”, the “polyreactivity (PSR sort gate)” value is listed as “low polyreactivity”. To “QVQLVESRGGLVQAGGSLRLSCAASAFTFDYYVMGWYIQAPGKERELVAAISLRSGRTYYADSVKGRFTISRDNAKNTVYLQMNSLKPEDTAVYYCAAESRGVGAYYYWGQGTQLTVSS” belongs “high polyreactivity”.
